What follows are binders tested against T1, HLA-A*02:01 (human) (assay: UV ligand-exchange ELISA (anti-b2m); ++++ = exchange yield >=75%).
T1 construct: MHC monomers captured on streptavidin plates; the UV-sensitive peptide is cleaved and exchanged with the test peptide; also called peptide-receptive MHC molecules; MHC class I
Source text: (§1) Candidate peptides for T cell based therapies according to the present invention were further tested for their MHC binding capacity (affinity). The individual peptide-MHC complexes were produced by UV-ligand exchange, where a UV-sensitive peptide is cleaved upon UV-irradiation, and exchanged with the peptide of interest as analyzed. Only peptide candidates that can effectively bind and stabilize the peptide-receptive MHC molecules prevent dissociation of the MHC complexes. To determine the yield of the exchange reaction, an ELISA was performed based on the detection of the light chain (β2m) of stabilized MHC complexes. The assay was performed as generally described in Rodenko et al. (Rodenko et al., 2006).
(§2) 96 well MAXISorp plates (NUNC) were coated over night with 2 ug/ml streptavidin in PBS at room temperature, washed 4× and blocked for 1 h at 37° C. in 2% BSA containing blocking buffer. Refolded HLA-A*02:01/MLA-001 monomers served as standards, covering the range of 15-500 ng/ml. Peptide-MHC monomers of the UV-exchange reaction were diluted 100 fold in blocking buffer. Samples were incubated for 1 h at 37° C., washed four times, incubated with 2 ug/ml HRP conjugated anti-β2m for 1 h at 37° C., washed again and detected with TMB solution that is stopped with […]. Absorption was measured at 450 nm. Candidate peptides that show a high exchange yield (preferably higher than 50%, most preferred higher than 75%) are generally preferred for a generation and production of antibodies or fragments thereof, and/or T cell receptors or fragments thereof, as they show sufficient avidity to the MHC molecules and prevent dissociation of the MHC complexes.
FLNAIETAL showed a peptide exchange yield of no less than 75%.
FLLEREQLL showed a peptide exchange yield of no less than 75%.
GLDAFRIFL gave a peptide exchange yield of no less than 75%.
NLLDENVCL showed a peptide exchange yield of no less than 75%.
SLVSWQLLL gave a peptide exchange yield of no less than 75%.
In the case of GLLPSAESIKL, the peptide exchange yield is reported as no less than 75%.
VLLNEILEQV showed a peptide exchange yield of no less than 75%.
In the case of RLFEEVLGV, the peptide exchange yield is reported as no less than 75%.
KLQEKIQEL gave a peptide exchange yield of no less than 75%.
In the case of GLLDCPIFL, the peptide exchange yield is reported as no less than 75%.

Each binder was assayed against T1, HLA-A*02:01 (assay: UV ligand-exchange ELISA (anti-b2m); + = exchange yield >=10%).
Source text: as §1, §2
Work on GPGIFPPPPPQP yielded a peptide exchange yield of 10 to 20%.
In the case of SEMEELPSV, the peptide exchange yield is reported as 10 to 20%.
With QTAPEEAFIKL the peptide exchange yield was 10 to 20%.
AQHLSTLLL gave a peptide exchange yield of 10 to 20%.
